Data set [1] has as its target post-translational lamin construct with a single N-terminal cysteine (pJS81) (human) (UniProt P02545). The data set is described as follows: SEC.
The data set “optical tweezers” concerns the molecule itself. The data set is described as follows: optical tweezers.

“post-translational lamin construct with a single N-terminal cysteine (pJS81) (from UniProt P02545 31-311) (domain or fragment)”: the stoichiometry N in data set [1] was found to be 2.

B1: LMNA_(31-311) ribosome-bound nascent chain (domain or fragment)
chain: EKEDLQELNDRLAVYIDRVRSLETENAGLRLRITESEEVVSREVSGIKAAYEAELGDARKTLDSVAKERARLQLELSKVREEFKELKARNTKKEGDLIAAQARLKDLEALLNSKEAALSTALSEKRTLEGELHDLRGQVAKLEAALGEAKKQLQDEMLRRVDAENRLQTMKEELDFQKNIYSEELRETKRRHETRLVEIDNGKQREFESRLADALQELRAQHEDQVEQYKKELEKTYSAKLDNARQSAERNSNLVGAAHEELQQSRIRIDSLSAQLSQLQK
Turning to B1, the mean rupture force in “optical tweezers” was determined as 14 pN.

B2: LMNA_(31-123) ribosome-bound nascent chain (domain or fragment)
chain: EKEDLQELNDRLAVYIDRVRSLETENAGLRLRITESEEVVSREVSGIKAAYEAELGDARKTLDSVAKERARLQLELSKVREEFKELKARNTKK
As for B2, in “optical tweezers”, the mean rupture force stood at 7 pN.

Values taken from PMC12356879 (Nature Communications, 2025).
